{"source": "paper PMC4388643", "proteins": {"B1": {"name": "Lcc4 laccase (nLcc4): Endo H, 1 h to overnight (protein)", "parent chain": "MKALSFLTPIVTLALVAGAFASVGPVANLKIGNAAVSPDGYTRDAVVVNGATPGPLIVGNKGDNFRLNVIDELTNHTMLKSTSIHWHGFFQHGTNWADGGAFVNQCPISSGHSFSYNFQAKDQAGTFWYHSHLSTQYCDGLRGPFVVYDPKDPHKKLYDVDNESTVITLEDWYHTAARLGPRFPLGSDSTLINGLGRSATTATGDLAVIKVTRGKRYRFRLVSLSCDPFYTFSIDGHNMTIIEADAVNTKPHTVDSLEIFAGQRYSFILNANQPVDNYWVRANPNFGNVGFTNGINSAILRYDGAAVAEPATAIPPASVTPLLETDLHPLVSTPVPGSPVAGGVDKALNFVFNFDGTNFFINDATFTPPSVPVLLQILSGAQAAQDLLPSGSVIPLPALSTIELSFPATANAPGVPHPFHLHGHTFAVVRSAGSTAYNYEDPVWRDVVSTGTPAAGDNVTIRFVTDNPGPWFLHCHIDFHLEAGFAVVFAEDLPGTPAANPVPQSWSDLCPIYDALAEDDQ"}, "B2": {"name": "Lcc4 laccase (nLcc4): N458D (protein)", "parent chain": "B1 parent chain"}, "B3": {"name": "Lcc4 laccase (nLcc4): N75D (protein)", "parent chain": "B1 parent chain"}, "B4": {"name": "Lcc4 laccase (nLcc4): N238D (protein)", "parent chain": "B1 parent chain"}, "B5": {"name": "Lcc4 laccase (nLcc4): Endo H (dLcc4) (protein)", "parent chain": "B1 parent chain"}}, "key": {"[1]": {"experiment": "zymography", "conditions": "glycan lost; control: nLcc4 (untreated)"}, "[2]": {"experiment": "zymography of culture media", "conditions": "glycan lost; control: rLcc4-WT (P. pastoris)"}, "[3]": {"experiment": "activity versus pH and temperature", "conditions": "glycan lost; control: nLcc4 (untreated)"}}, "data": [{"protein": "B1", "values": [{"measurement": "enzymatic_activity", "setting": "[1]", "result": "no change"}]}, {"protein": "B2", "values": [{"measurement": "enzymatic_activity", "setting": "[2]", "result": "abolishes"}]}, {"protein": "B3", "values": [{"measurement": "enzymatic_activity", "setting": "[2]", "result": "decreases, the N75D mutant showed activity at around 60 s"}]}, {"protein": "B4", "values": [{"measurement": "enzymatic_activity", "setting": "[2]", "result": "abolishes"}]}, {"protein": "B5", "values": [{"measurement": "other: optimal pH and temperature", "setting": "[3]", "result": "no change"}]}]}
